Measured values as given in patent US20020042382A1 (UNITED STATES OF AMERICA AS REPRESENTED BY THE SECRETARY OF …, published 2002).

T1: Sequestrin GST-R(0-IV) fusion protein (Plasmodium falciparum)
T1 construct: The five domains R0-RIV are said to represent the entirety of amino acids H42-A458; also called domain combination R(0-IV); not shown: glutathione S-transferase fusion partner encoded by vector pGEX-3X (Pharmacia), followed by a Factor Xa site
T1 chain: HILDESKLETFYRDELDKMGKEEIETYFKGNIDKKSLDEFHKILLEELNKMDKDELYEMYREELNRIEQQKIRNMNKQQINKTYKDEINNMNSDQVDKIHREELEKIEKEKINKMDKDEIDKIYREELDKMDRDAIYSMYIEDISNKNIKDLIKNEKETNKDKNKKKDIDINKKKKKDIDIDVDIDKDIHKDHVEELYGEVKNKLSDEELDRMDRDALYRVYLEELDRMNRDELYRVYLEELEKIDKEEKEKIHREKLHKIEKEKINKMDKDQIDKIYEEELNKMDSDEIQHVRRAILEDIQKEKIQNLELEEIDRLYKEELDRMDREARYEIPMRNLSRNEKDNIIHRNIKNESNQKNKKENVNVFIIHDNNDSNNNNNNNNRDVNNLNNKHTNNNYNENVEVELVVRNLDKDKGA

B1: trpE fusion protein representing Sequestrin amino acids H42-A458 (other)
chain: T1 chain
notes: Tested in a bacterial extract, blotted
B2: CD36 (purified) (receptor)
chain: GCDRNCGLIAGAVIGAVLAVFGGILMPVGDLLIQKTIKKQVVLEEGTIAFKNWVKTGTEVYRQFWIFDVQNPQEVMMNSSNIQVKQRGPYTYRVRFLAKENVTQDAEDNTVSFLQPNGAIFEPSLSVGTEADNFTVLNLAVAAASHIYQNQFVQMILNSLINKSKSSMFQVRTLRELLWGYRDPFLSLVPYPVTTTVGLFYPYNNTADGVYKVFNGKDNISKVAIIDTYKGKRNLSYWESHCDMINGTDAASFPPFVEKSQVLQFFSSDICRSIYAVFESDVNLKGIPVYRFVLPSKAFASPVENPDNYCFCTEKIISKNCTSYGVLDISKCKEGRPVYISLPHFLYASPDVSEPIDGLNPNEEEHRTYLDIEPITGFTLQFAKRLQVNLLVKPSEKIQVLKNLKRNYIVPILWLNETGTIGDEKANMFRSQVTGKINLLGLIEMILLSVGVVMFVAFMISYCACRSKTIK
modifications: 125I-labelled where used as probe
notes: Purified protein, a gift from Dr. N. Tandon; Used 125I-labelled in solution or coated on plates or dishes; also called 125I-CD36; radiolabelled human CD36

What was measured:
radiolabeled ICAM-1 = radiolabeled ICAM-1 (UniProt P05362 28-532, radiolabelled); experiment: bacterial extracts blotted and probed with radiolabeled ICAM-1
Sequence of radiolabeled ICAM-1 (P05362 28-532 limits assumed): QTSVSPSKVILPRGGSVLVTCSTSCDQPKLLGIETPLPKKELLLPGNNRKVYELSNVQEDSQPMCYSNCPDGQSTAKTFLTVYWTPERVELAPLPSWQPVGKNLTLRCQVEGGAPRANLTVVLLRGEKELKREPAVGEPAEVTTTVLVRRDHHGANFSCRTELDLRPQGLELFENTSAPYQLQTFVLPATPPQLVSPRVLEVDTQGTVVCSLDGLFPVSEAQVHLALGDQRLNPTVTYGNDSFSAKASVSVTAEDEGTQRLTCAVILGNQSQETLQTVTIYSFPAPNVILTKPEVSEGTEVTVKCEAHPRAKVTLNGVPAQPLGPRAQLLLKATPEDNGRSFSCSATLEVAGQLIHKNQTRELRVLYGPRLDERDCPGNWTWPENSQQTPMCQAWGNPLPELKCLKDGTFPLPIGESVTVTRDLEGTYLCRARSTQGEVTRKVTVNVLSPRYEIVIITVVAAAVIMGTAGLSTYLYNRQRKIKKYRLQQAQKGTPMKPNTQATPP

[1] = target: T1, Sequestrin GST-R(0-IV) fusion protein; experiment: competition of 125I-CD36 binding to plate-coated GST-R(0-IV) by unlabeled CD36, gamma counting

Row | Binder | binding result (radiolabeled ICAM-1) | Ki [1]
1 | B1 | no binding | –
2 | B2 | – | ~6 nM
